Where two headings read alike, the source gives them in different places.

In test [1] the target is T1, hCLEC12B (human, UniProt Q2HXU8 1-276).
T1 construct: Overexpressed on HEK293 cells
T1 sequence: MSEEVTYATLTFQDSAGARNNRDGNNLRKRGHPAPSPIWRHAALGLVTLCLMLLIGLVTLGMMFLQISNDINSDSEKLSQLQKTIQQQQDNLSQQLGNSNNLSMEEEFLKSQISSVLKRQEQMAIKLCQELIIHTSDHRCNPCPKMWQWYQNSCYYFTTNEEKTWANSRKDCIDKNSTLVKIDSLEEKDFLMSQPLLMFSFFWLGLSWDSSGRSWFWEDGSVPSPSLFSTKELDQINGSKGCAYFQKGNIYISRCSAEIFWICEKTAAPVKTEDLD
The experiment in a line: flow cytometry; 100 nM antibody on HEK293 cells expressing CLEC12B; Alexa Fluor 647 anti-human IgG; MFI.
Protocol: (§1) For the antibody binding assay, all cell lines were washed in phosphate-buffered saline with 0.1% bovine serum albumin (PBSA) and seeded in a 96 well plate at a density of 4×10⁴ cells per well. Washed cells were resuspended in 100 nM of antibody (a saturating concentration to measure maximum binding on cells) and incubated at room temperature for 30 minutes. […] Cells were analyzed by flow cytometry with a Thermo Fisher Attune flow cytometer.
(§2) Data were analyzed using FlowJo software. MFI for each sample was calculated and exported into Graphpad Prism.

For test [2], the target named is T2, hCLEC2D (human, UniProt Q9UHP7 1-191).
T2 construct: Overexpressed on HEK293 or K562 cells; the same id is used for endogenous CLEC2D on NALM6 and Raji cells; also called LLT1
T2 sequence: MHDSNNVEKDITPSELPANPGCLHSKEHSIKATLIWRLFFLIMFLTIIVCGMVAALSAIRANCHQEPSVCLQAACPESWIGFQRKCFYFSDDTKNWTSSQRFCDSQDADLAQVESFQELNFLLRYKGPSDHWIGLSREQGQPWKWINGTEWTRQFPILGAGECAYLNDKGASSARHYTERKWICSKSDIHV
Put plainly: flow cytometry, HEK293 transfectants, 100 nM antibody.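 Note: antibody applied at a saturating level and incubated with cells for 30 min at room temperature.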
Protocol: as §1, §2

Test [3] addresses T1, hCLEC12B. The description is as above.
Protocol: as §1, §2
Test [4] addresses T3, hKLRF1 (human, UniProt Q9NZS2 1-231).
T3 construct: Overexpressed on HEK293 cells
T3 sequence: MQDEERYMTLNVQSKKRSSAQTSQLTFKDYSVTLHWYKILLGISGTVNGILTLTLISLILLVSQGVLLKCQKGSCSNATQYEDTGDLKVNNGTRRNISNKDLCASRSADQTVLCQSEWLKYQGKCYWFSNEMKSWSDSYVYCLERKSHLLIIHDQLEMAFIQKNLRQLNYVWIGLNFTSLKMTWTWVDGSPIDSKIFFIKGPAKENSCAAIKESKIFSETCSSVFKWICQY
The test is described as above.
Protocol: as §1, §2

The target in test [5] is T4, hKLRF2 (human, UniProt D3W0D1 1-207).
T4 construct: Overexpressed on HEK293 cells
T4 sequence: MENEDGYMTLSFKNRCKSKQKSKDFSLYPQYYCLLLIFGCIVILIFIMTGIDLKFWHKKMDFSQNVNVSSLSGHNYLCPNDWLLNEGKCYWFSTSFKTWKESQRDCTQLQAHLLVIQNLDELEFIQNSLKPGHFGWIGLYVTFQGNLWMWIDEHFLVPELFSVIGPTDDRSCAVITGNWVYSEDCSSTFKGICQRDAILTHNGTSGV
The test is described as above.
Protocol: as §1, §2

Test [6] has as its target T4, hKLRF2. The experiment in a line: flow cytometry; 100 nM antibody on HEK293 cells expressing KLRF2; Alexa Fluor 647 anti-human IgG; MFI. On the technique in general: A flow cytometer gives signals particle by particle.
Protocol: as §1, §2
Test [7] deals with T3, hKLRF1. The experiment in a line: flow cytometry; 100 nM antibody on HEK293 cells expressing KLRF1; Alexa Fluor 647 anti-human IgG; MFI.
Protocol: as §1, §2
Test [8] deals with T2, hCLEC2D. The experiment in a line: flow cytometry; 100 nM antibody on HEK293 cells expressing CLEC2D; Alexa Fluor 647 anti-human IgG; MFI.
Protocol: as §1, §2
Test [9] concerns the target T3, hKLRF1. The experiment in a line: flow cytometry; 100 nM antibody on HEK293 cells expressing KLRF1; Alexa Fluor 647 anti-human IgG; MFI. This is another data set of the same source.
Protocol: as §1, §2
In test [10] the target is T4, hKLRF2. Put plainly: flow cytometry; 100 nM antibody on HEK293 cells expressing KLRF2; Alexa Fluor 647 anti-human IgG; MFI. The source holds these as a separate data set.
Protocol: as §1, §2
For test [11], the target named is T1, hCLEC12B. Put plainly: flow cytometry; 100 nM antibody on HEK293 cells expressing CLEC12B; Alexa Fluor 647 anti-human IgG; MFI. This is another data set of the same source.
Protocol: as §1, §2
Test [12] has as its target T2, hCLEC2D. The experiment in a line: flow cytometry; 100 nM antibody on HEK293 cells expressing CLEC2D; Alexa Fluor 647 anti-human IgG; MFI. This is another data set of the same source.
Protocol: as §1, §2

B1: Ab7 (antibody, human IgG1, V domains shown)
VH: EVQLLESGGGLVQPGGSLRLSCAASGFTFGQYAMSWVRQAPGKGLEWVSAISAAGGTTYYADSVKGRFTISRDNSKNTLYLQMNSLRAEDTAVYYCAKPLDSSQWADFDLWGRGTLVTVSS
VL: DIQLTQSPSSVSASVGDRVTITCRASQGISSWLAWYQQKPGKAPKLLIYAASFLQSGVPSRFSGSGSGTDFTLTISSLQPEDFATYYCQQASVLPITFGGGTKVEIK
notes: IgG purified from yeast culture
With B1, the binding result in the test with hCLEC12B [1], with hKLRF2 [6], with hKLRF1 [7] and with hCLEC2D [8] was “no binding (tested: 100 nM)” in each case. Moreover, the “% of CD161 binding” value in the test with hCLEC2D [2] was found to be 1.09%; with hCLEC12B [3], 0.011%; in the test with hKLRF1 [4], 0.018%; in the test with hKLRF2 [5], 0.04%.

B2: Ab2 (antibody, human IgG1, V domains shown)
VH: EVQLLESGGGLVQPGGSLRLSCAASGFAFSTYAMSWVRQAPGKGLEWVSAISGVGGTTYYADSVKGRFTISRDNSKNTLYLQMNSLRAEDTAVYYCAKPLDSSLWADFDLWGRGTLVTVSS
VL: DIQLTQSPSSVSASVGDRVTITCRASQGISSWLAWYQQKPGKAPKLLIYYASSLQDGVPSRFSGSGSGTDFTLTISSLQPEDFATYYCQQASVLPITFGGGTKVEIK
notes: as for B1
For the molecule B2, the binding result with hCLEC12B [1], in the test with hKLRF2 [6], with hKLRF1 [7] and with hCLEC2D [8] was “no binding (tested: 100 nM)” throughout. The “% of CD161 binding” value with hCLEC2D [2] was found to be 0.863%; with hCLEC12B [3], 0.057%; with hKLRF1 [4], 0.032%; in the test with hKLRF2 [5] it was 0.049%.

B3: Ab4 (antibody, human IgG1, V domains shown)
VH: EVQLLESGGGLVQPGGSLRLSCAASGFTFERYAMSWVRQAPGKGLEWVSAISAVGGTTKYADSVKGRFTISRDNSKNTLYLQMNSLRAEDTAVYYCAKPLDSSLWADFDAWGRGTLVTVSS
VL: DIQLTQSPSSVSASVGDRVTITCRASQGISSWLAWYQQKPGKAPKLLIYAASGLQSGVPSRFSGSGSGTDFTLTISSLQPEDFATYYCQQASYLPITFGGGTKVEIK
notes: as for B1
Take B3: the binding result with hCLEC12B [1], in the test with hKLRF2 [6], with hKLRF1 [7] and in the test with hCLEC2D [8] was “no binding (tested: 100 nM)” each time. Moreover, the “% of CD161 binding” value turned out to be 1.11% with hCLEC2D [2], 0.074% in the test with hCLEC12B [3], 0.095% with hKLRF1 [4] and 0.056% in the test with hKLRF2 [5].

B4: Ab1 (antibody, human IgG1, V domains shown)
VH: EVQLLESGGGLVQPGGSLRLSCAASGFAFSTYAMSWVRQAPGKGLEWVSAISAAGGTTYYADSVKGRFTISRDNSKNTLYLQMNSLRAEDTAVYYCAKPLDSSLWADFDLWGRGTLVTVSS
VL: DIQMTQSPSSVSASVGDRVTITCRASQGIDSWLAWYQQKPGKAPKLLIYAASSLQSGVPSRFSGSGSGTDFTLTISSLQPEDFATYYCQQASVLPITFGGGTKVEIK
notes: as for B1
Regarding B4, the binding result in the test with hCLEC12B [1], in the test with hKLRF2 [6], with hKLRF1 [7] and in the test with hCLEC2D [8] was “no binding (tested: 100 nM)” in each case. In addition, the “% of CD161 binding” value with hCLEC2D [2] amounted to 0.975%; with hCLEC12B [3], 0.04%; with hKLRF1 [4], 0.073%; in the test with hKLRF2 [5] it was 0.036%.

B5: Ab16 (antibody, human IgG1, V domains shown)
VH: QVQLVESGGGLVKPGGSLRLSCAASGFTFSDYYMSWIRQAPGKGLEWVSYISPSGATIAYADSVKGRFTISRDNSKNTLYLQMNSLRAEDTAVYYCARSLMATGTHLYFDLWGRGTLVTVSS
VL: DIQLTQSPSSVSASVGDRVTITCRASQGISSWLAWYQQKPGKAPKLLIYAASGLQSGVPSRFSGSGSGTDFTLTISSLQPEDFATYYCQQSTSFPPYTFGGGTKVEIK
notes: as for B1
Turning to B5, the “% of CD161 binding” value is 0.865% in the test with hCLEC2D [2], 0.088% with hCLEC12B [3], 0.061% with hKLRF1 [4] and 0.048% with hKLRF2 [5]. Besides, the binding result in the test with hKLRF1 [9], in the test with hKLRF2 [10], with hCLEC12B [11] and in the test with hCLEC2D [12] was “no binding (tested: 100 nM)” each time.

B6: Ab19 (antibody, human IgG1, V domains shown)
VH: QVQLVESGGGLVKPGGSLRLSCAASGFTFSQYYMSWIRQAPGKGLEWVSYISPSGATIYYADSVKGRFTISRDNAKNSLYLQMNSLRAEDTAVYYCARSLMATGTHLYFDLWGRGTLVTVSS
VL: DIQLTQSPSSVSASVGDRVTITCRASQGISSWLAWYQQKPGKAPKLLIYAASALQSGVPSRFSGSGSGTDFTLTISSLQPEDFATYYCQQVTSAPPYTFGGGTKVEIK
notes: as for B1
Turning to B6, the “% of CD161 binding” value in the test with hCLEC2D [2] was 0.97%; with hCLEC12B [3] it was 0.26%; in the test with hKLRF1 [4], 0.305%; in the test with hKLRF2 [5] it was 0.22%. The binding result with hKLRF1 [9], with hKLRF2 [10], with hCLEC12B [11] and in the test with hCLEC2D [12] was “no binding (tested: 100 nM)” throughout.

B7: Ab20 (antibody, human IgG1, V domains shown)
VH: QVQLVESGGGLVQPGGSLRLSCAASGFTFSQYYMSWIRQAPGKGLEWVSYISPSGATIAYADSVKGRFTISRDNAKNSLYLQMNSLRAEDTAVYYCARSLMSTGTHLYFDLWGRGTLVTVSS
VL: DIQLTQSPSSVSASVGDRVTITCRASQGISSWLAWYQQKPGKAPKLLIYAASVLQSGVPSRFSGSGSGTDFTLTISSLQPEDFATYYCQQVTSFLPYTFGGGTKVEIK
notes: as for B1
For the molecule B7, the “% of CD161 binding” value in the test with hCLEC2D [2] is 0.968%; with hCLEC12B [3] it was 0.061%; with hKLRF1 [4] it was 0.132%; with hKLRF2 [5], 0.054%. In addition, the binding result in the test with hKLRF1 [9], in the test with hKLRF2 [10], with hCLEC12B [11] and in the test with hCLEC2D [12] was “no binding (tested: 100 nM)” in each case.

B8: Ab17 (antibody, human IgG1, V domains shown)
VH: QVQLVESGGGLVKPGGSLRLSCAASGFTFSDYYMSWIRQAPGKGLEWVSYISPSGATIYYADSVKGRFTISRDNAKNSLYLQMNSLRAEDTAVYYCARSLMSTGTHLYFDLWGRGTLVTVSS
VL: DIQLTQSPSSVSASVGDRVTITCRASQGISSWLAWYQQKPGKAPKLLIYAASSLQSGVPSRFSGSGSGTDFTLTISSLQPEDFATYYCQQVTSVPPYTFGGGTKVEIK
notes: as for B1
For B8, the “% of CD161 binding” value was 1.08% in the test with hCLEC2D [2], 0.038% with hCLEC12B [3], 0.078% in the test with hKLRF1 [4] and 0.051% in the test with hKLRF2 [5]. Also, the binding result with hKLRF1 [9], in the test with hKLRF2 [10], in the test with hCLEC12B [11] and with hCLEC2D [12] was “no binding (tested: 100 nM)” throughout.

The values above are taken from US20250243281A1 (IMMUNITAS THERAPEUTICS, published 2025).
